Positions count from the first letter of the chain named.
T1: soluble mouse IL-31 receptor (mouse, UniProt Q8K5B1 19-499)
T1 sequence (looked up): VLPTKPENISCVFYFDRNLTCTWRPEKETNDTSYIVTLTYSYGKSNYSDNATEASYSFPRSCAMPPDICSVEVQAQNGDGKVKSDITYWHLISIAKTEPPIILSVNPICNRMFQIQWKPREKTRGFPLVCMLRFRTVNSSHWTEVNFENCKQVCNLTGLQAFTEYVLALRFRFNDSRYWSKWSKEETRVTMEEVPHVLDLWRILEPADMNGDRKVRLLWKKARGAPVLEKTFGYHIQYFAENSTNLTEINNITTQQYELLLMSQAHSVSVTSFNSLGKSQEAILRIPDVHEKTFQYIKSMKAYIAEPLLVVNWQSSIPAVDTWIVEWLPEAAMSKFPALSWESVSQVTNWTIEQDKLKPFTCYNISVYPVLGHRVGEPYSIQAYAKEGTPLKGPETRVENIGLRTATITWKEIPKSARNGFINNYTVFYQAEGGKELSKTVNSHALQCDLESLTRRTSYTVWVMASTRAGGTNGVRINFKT

B1: Anti-IL6 wild type (antibody, human IgG1, kappa, V domains shown)
VH: EVQLVESGGKLLKPGGSLKLSCAASGFTFSSFAMSWFRQSPEKRLEWVAEISSGGSYTYYPDTVTGRFTISRDNAKNTLYLEMSSLRSEDTAMYYCARGLWGYYALDYWGQGTSVTVSS
VL: QIVLIQSPAIMSASPGEKVTMTCSASSSVSYMYWYQQKPGSSPRLLIYDTSNLASGVPVRFSGSGSGTSYSLTISRMEAEDAATYYCQQWSGYPYTFGGGTKLEIKR
notes: Antibody of WO 2004/039826, rebuilt and tested here; also called anti-IL-6 antibody including the H chain (WT) and L chain (WT)
B2: Anti-IL6 clone 1 (antibody, human IgG1, kappa, V domains shown)
VH: B1 VH with F32H, Y60H, D62H, Y103H
VL: B1 VL with L53H, Q89H, Y93H
notes: H chain (c1) / L chain (c1)
B3: Anti-IL-6 clone 2 (antibody, human IgG1, kappa, V domains shown)
VH: B1 VH with F32H, Y60H, D62H, Y103H
VL: B1 VL with N52H, L53H, Q89H, Y93H
notes: H chain (c1) / L chain (c2)
B4: Anti-IL31R wild type (antibody, human IgG1, lambda, V domains shown)
VH: not shown
VL: LPVLTQPPSVSVAPGQTARITCGGNNIGSKTVYWYQQEPGQAPVLVVYDDTDRPAGIPERFSGANSGNTATLTISRVEAGDEADYYCQVWDSSTDHGVFGGGTKLTVLG
notes: Antibody of WO 2007/142325, rebuilt and tested here; also called anti-IL-31 receptor antibody including the H chain (WT) and L chain (WT)

Assays:
[1] = molecular target: T2, human IL-6 (Toray) (human, UniProt P05231 30-212); test: SPR Biacore T100, antibody on protein A/G chip, human IL-6 analyte, pH 5.5, 37 C
T2 construct: also called human interleukin-6
Procedure: (§1) Kinetic analysis of antigen-antibody reactions at pH 5.5 and pH 7.4 was carried out using a Biacore T100™ surface plasmon resonance system (GE Healthcare) for the three types of antibodies prepared as mentioned above: Anti-IL6 wild type, Anti-IL6 clone 1, and Anti-IL-6 clone 2 (buffer: DPBS(−) (pH 7.4 or pH 5.5), 150 mM NaCl). The antibodies were bound to a sensor chip on which recomb-protein A/G (Pierce) was immobilized by amine coupling, and then human IL-6 (Toray) adjusted to an appropriate concentration was injected on the chip as an analyte. All the measurements were carried out at 37° C. Association rate constants kₐ (1/Ms) and dissociation rate constants kd (1/s) were calculated using Biacore T100™ Evaluation Software (GE Healthcare), and dissociation constants KD (M) were calculated based on those values (Table 14). Furthermore, the ratio of affinity at pH 5.5 and pH 7.4 was calculated for each clone to evaluate the pH-dependent binding.

[2] = molecular target: T2, human IL-6 (Toray); test: SPR Biacore T100, antibody on protein A/G chip, human IL-6 analyte, 37 C, ratio of pH 5.5 to pH 7.4
Procedure: as §1

[3] = molecular target: T2, human IL-6 (Toray); test: SPR Biacore T100, antibody on protein A/G chip, human IL-6 analyte, pH 7.4, 37 C
Procedure: as §1

[4] = molecular target: T2, human IL-6 (Toray); test: SPR Biacore T100, antibody on protein A/G chip, human IL-6 analyte, 37 C
Procedure: as §1

[5] = molecular target: T1, soluble mouse IL-31 receptor; test: SPR Biacore T100, antibody on protein A/G chip, soluble mouse IL-31 receptor analyte, pH 7.4, 25 C
Procedure: (§2) Kinetic analysis of antigen-antibody reactions at pH 5.5 and pH 7.4 was carried out using a Biacore T100™ surface plasmon resonance system (GE Healthcare) for the two types of antibodies prepared as mentioned above: Anti-IL31R wild type and Anti-IL31R clone 1 (buffer: DPBS(−) (pH 7.4 or pH 5.5), 150 mM NaCl, 0.01% TWEEN® 20 (polyoxyethelene sorbitan monolaurate), 0.02% NaN₃). The antibodies were bound to a sensor chip on which recomb-protein A/G (Pierce) was immobilized by amine coupling, and then the soluble mouse IL-31 receptor (prepared according to the method described in WO 2007/142325) adjusted to an appropriate concentration was injected therein as an analyte. All the measurements were carried out at 25° C. Association rate constants kₐ (1/Ms) and dissociation rate constants kd (1/s) were calculated using Biacore T100™ Evaluation Software (GE Healthcare), and dissociation constants KD (M) were calculated based on those values (Table 16). Furthermore, the ratio of affinity at pH 5.5 and pH 7.4 was calculated for each clone to evaluate the pH-dependent binding.

[6] = molecular target: T1, soluble mouse IL-31 receptor; test: SPR Biacore T100, antibody on protein A/G chip, soluble mouse IL-31 receptor analyte, 25 C, ratio of pH 5.5 to pH 7.4
Procedure: as §2

Row | Binder | Kd [1] [pM] | koff [1] [s⁻¹] | kon [1] [M⁻¹ s⁻¹] | KD (pH 5.5)/KD (pH 7.4) [2] | Kd [3] [pM] | koff [3] [s⁻¹] | kon [3] [M⁻¹ s⁻¹] | pH-dependent binding ability relative to WT [4] [fold] | Kd [5] [pM] | koff [5] [s⁻¹] | kon [5] [M⁻¹ s⁻¹] | KD (pH 5.5)/KD (pH 7.4) [6]
1 | B1 | 16.1 | 0.000245 | 1.52e+07 | 0.8 | 19.1 | 0.000391 | 2.05e+07 |  |  |  |  | 
2 | B2 | 4520 | 0.00926 | 2.05e+06 | 10.3 | 438 | 0.00471 | 1.07e+07 | > 10 |  |  |  | 
3 | B3 | 3980 | 0.011 | 2.76e+06 | 13.5 | 294 | 0.00263 | 8.96e+06 | > 10 |  |  |  | 
4 | B4 |  |  |  |  |  |  |  |  | 23000 | 0.0034 | 140000 | 3.2

Source: US20180282719A1 (published 2018)
